Substrate: O=[N+]([O-])c1ccc(O[C@@H]2OC[C@@H](O)[C@H](O)[C@H]2O)cc1
Test: purified protein
Assay type: biochemical, Caldicellulosiruptor owensensis
Conditions: 50 mM sodium citrate, 150 mM NaCl, pH 5.0, 75 °C, 0.05 to 2.4 mM pNPX

B1: Coxyl A (Caldicellulosiruptor owensensis OL) (protein)
chain: MKIELYPEKTSGKINKFWTKCVGSCHAATALREDWRRQLRKCRQELGFEYLRCHGWLNDDMSVCFRNEDGKLWFSFFNIDTIIDFLLDIGMKPFIELSFMPEALASGTKTVFHYKGNITPPKSYEEWGQLVEELARHLVKRYGKNEVKEWFFEVWNEPNLKDFFWAGTMEEYFELYKHAAFAIKKVDPDLKVGGPASAIDAWIPELKEFCEKNNVPIDFISTHQYPTDLAFSTSSNMEEAMAKAKRGELADRVKKAIEEASPLPVYYTEWNNSPSPRDPYHDIPYDAAFIVKTIIDIVDLPLGCYSYWTFTDIFEECGQSSLPFHGGFGLLNIHGIPKPSYRAFQILDKLNGEKINAEAEDISPTIDFIATKNNNEIVLIISNHNVPLSPIENENILVTVNGLKGCKEISIERIDEYNANPKRKWVEMGSPEYLNKDQIEELIEASKPKKEVVSWRITGDNQLAFELNILPHSVLGVTIKTE
notes: His-tagged in pET-28b(+), E. coli BL21(DE3); homodimer
With B1 as the protein, how does the Km read?
The Km was 1600 ± 100 µM.

What about the Vmax of the same protein?
The Vmax was 3930 µmol/min/mg.

What about the kcat of the same protein?
Its kcat is 3630 ± 122 s⁻¹.

Source: article PMC4134300, “Biochemical Characterization of Two Thermostable Xylanolytic Enzymes Encoded by a Gene Cluster of Caldicellulosiruptor owensensis” (PLoS ONE, 2014)
